Reference: paper PMC2943577

Columns and labels:
Assay in all cases: tandem affinity purification with Western blot
[1] = biological target: TAP-tagged Ada2 (S. cerevisiae) (UniProt Q02336)
[2] = biological target: TAP-tagged Esa1 (S. cerevisiae) (UniProt Q08649)
[3] = biological target: TAP-tagged Spt7 (S. cerevisiae) (UniProt P35177)
UniProt P35177, sequence (P35177 whole entry): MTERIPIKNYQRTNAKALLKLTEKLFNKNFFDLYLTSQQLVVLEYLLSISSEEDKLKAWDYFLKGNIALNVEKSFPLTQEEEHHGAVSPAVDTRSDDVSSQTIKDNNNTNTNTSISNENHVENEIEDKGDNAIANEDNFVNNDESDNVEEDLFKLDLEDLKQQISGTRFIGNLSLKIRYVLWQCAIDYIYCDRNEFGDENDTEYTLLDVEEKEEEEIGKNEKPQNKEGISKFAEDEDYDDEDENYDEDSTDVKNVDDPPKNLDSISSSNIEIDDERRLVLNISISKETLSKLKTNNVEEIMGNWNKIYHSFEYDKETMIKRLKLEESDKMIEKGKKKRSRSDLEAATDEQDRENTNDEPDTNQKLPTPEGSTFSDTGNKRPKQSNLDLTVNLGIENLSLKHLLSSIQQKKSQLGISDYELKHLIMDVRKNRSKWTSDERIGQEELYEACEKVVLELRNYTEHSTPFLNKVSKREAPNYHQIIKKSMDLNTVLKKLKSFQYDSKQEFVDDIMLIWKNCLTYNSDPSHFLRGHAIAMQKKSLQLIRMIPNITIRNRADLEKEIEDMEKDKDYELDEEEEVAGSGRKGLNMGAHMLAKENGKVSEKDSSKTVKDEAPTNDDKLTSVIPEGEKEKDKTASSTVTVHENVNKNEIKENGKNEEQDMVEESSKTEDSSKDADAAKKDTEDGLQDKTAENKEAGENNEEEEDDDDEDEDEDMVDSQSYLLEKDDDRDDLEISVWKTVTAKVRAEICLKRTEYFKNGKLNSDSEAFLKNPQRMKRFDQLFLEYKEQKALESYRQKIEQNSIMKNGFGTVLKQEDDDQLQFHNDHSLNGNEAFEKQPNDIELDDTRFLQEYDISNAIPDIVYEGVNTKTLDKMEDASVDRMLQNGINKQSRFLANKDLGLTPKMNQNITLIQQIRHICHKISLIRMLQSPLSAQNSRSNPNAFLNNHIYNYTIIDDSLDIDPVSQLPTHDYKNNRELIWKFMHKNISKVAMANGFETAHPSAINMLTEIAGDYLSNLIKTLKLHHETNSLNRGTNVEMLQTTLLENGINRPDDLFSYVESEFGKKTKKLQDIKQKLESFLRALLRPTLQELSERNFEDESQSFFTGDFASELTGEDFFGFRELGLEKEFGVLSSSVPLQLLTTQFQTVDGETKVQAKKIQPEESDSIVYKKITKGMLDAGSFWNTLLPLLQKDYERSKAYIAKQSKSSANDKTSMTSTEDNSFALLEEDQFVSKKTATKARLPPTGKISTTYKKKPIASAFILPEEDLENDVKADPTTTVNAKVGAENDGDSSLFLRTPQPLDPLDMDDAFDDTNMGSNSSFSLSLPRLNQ

UniProt Q08649, sequence (Q08649 whole entry): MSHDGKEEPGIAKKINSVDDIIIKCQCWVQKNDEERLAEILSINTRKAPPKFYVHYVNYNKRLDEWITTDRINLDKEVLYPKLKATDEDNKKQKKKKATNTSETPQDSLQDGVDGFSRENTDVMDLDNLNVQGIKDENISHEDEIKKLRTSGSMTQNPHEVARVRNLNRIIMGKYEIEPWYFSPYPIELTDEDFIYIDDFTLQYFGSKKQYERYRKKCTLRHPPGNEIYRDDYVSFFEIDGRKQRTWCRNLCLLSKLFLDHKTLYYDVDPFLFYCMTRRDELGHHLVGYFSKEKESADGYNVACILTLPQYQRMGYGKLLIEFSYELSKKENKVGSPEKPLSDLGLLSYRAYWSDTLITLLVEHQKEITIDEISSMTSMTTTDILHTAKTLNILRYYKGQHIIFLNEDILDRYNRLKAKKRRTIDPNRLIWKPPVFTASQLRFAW
UniProt Q02336, sequence (Q02336 whole entry): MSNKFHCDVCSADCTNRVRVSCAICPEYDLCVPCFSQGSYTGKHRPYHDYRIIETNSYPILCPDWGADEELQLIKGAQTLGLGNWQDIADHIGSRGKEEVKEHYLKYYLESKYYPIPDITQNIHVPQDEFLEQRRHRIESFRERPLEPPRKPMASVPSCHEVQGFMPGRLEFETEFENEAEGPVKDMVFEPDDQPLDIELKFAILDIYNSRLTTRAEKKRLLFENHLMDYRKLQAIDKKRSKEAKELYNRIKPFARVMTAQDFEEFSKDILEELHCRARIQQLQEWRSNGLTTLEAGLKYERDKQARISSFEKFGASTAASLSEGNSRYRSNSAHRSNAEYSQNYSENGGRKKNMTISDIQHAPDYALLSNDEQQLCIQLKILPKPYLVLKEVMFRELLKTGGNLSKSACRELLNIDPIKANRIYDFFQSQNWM

interaction against wild-type Tra1, percent (reduced to or by is not clear) [1]: 70% | amount co-purifying, percent of that found for wild-type Tra1 [2]: < 5% | amount co-purifying, percent of that found for wild-type Tra1 [3]: < 5%
Substance: myc9-Tra1-G3745, P38811 1-3744
